Non-standard residues stand in square brackets, D forms with d. No end group written: not given here. pY = N[C@@H](Cc1ccc(OP(=O)(O)O)cc1)C(=O)O; pS = N[C@@H](COP(=O)(O)O)C(=O)O
Legend:
[1] = target: endogenous Aβ (AD hippocampus) (human (endogenous in postmortem hippocampus)); assay: FRET or BRET
[2] = target: the molecule itself; assay: nonreducing SDS-PAGE of peptide polymers
[3] = target: the molecule itself; assay: reducing SDS-PAGE and Western blotting of SDS-resistant polymers

Row | Molecule | binding result [2] | further results
1 | endogenous Zfra (human hippocampus) (natural protein) |  | FRETc [1]: > 45
2 | DYWAMLAYNRSKLC [WWOX286-299] | binds | 
3 | AGLDDTD[pS]EDELPPG [pS14-WWOX7-21] | binds | 
4 | D[pY]WAMLAYNRSKLC [pY287-WWOX286-299] | binds | 
5 | RIQNPSLRENDFIEIE [ANKRD40266-281] | binds | 
6 | RIQNP[pS]LRENDFIEIE [pS271-ANKRD40266-281] | binds | 
7 | DPGPGGQKMSL[pS]VLE [pS35-TPC6A24-38] | binds | 
8 | AGLDDTDSEDELPPG [WWOX7-21] | binds | 
9 | MSSRRSSSCKYCEQDFRAHTQKNAATPFLAN [Zfra1–31 (zinc finger-like protein that regulates apoptosis, full-length synthetic peptide)] |  | binding result [3]: binds

Source: article PMC5651433 (Alzheimer's & Dementia : Translational Research & Clinical …, 2017)
